Assay results taken from the DeepSol protein solubility set.

Assay: soluble on expression in E. coli; label from the status in PepcDB or PDB records

Soluble on expression in E. coli, soluble:
MSLQITGVNQYHLEHRLEEPFHPTWIPGYPQSTHELELFEIETDAGITGYGASPSFAGGLDYETPLELFLTGEDPHNVDGILGKLETVNLVGPRPWHIEMALWDIIGKDAGKPVCELFGAEQRAIPAYASSGEIQPADERIDYVEQRIDEGFDAVKLRVTETDHIETVRAVRESFPDLTLMVDANKGWAVRVMEEPTEWSFSDALEFARELDAVGGVEWLEEPLHRHDYDGYARLRDAVDVNIAGGEFNNGIHHFREFVDRGSLDILQPDAALATGIRRAVDVARMGEANGLQFVPHTWTNAVGFAANLHVMTAVGSPWCEYPMEPPWTPDVWSFMLEDGFEHDDGVVRAPSKPGLGIEIPDKVLEDAGEGHHHHHH
MAITVSIELNRDLEIPASYDEVFDLLADVPKSASHFPKVDKLVDLGNNAYRWEMEKVGVDKHAIQSVYACTYHADKEAGKITWSPIKGEGNGVVSGSWTLSAKGDNATAVKFQTSAELTVPLPSLLKLAISPVIKHEFNSLVDTYMANLKKAFLEHHHHHH
MSLTSRVSGVISTDEIIVILSVFVRYDVEQPSKLDRVRADYNVHYWSQGFFGIDDQGEVYVSPRKDKAHQTQLSSIVKQLEARDLNLPVLVRFPQILHQRVHNICDAFNQAIEEYDYPNKYLLVYPIKVNQQKEVVDEILASQAELEHKQLGLEAGSKPELLAVLAMAQQASSVIVCNGYKDREYIRLALIGEKLGHKVFIVLEKLSELDLVLKEAKSLGVKPRLGLRIRLASQGAGKWQSSGGEKSKFGLAASQVLTVINRLKAENQLEALQLVHFHLGSQMANIRDVRNGVNEAVRFYCELRELGAHIDFFDVGGGLAVDYDGTRSQSSNSMNYGLHEYARNIVSTVSDVCNLYGQPRPVIISESGRSITAHHAVLITNVIGTEAYSPEEIPAPGADAPMLLKNMWRGFEEVQHGTDDRALIEIYNDTQSDLSEAHSQFATGVLNLEHRAWAEQLSLRIYHELRQKMSNKNRFHRPILDELQERLADKFFVNFSLFQSLPDAWGIDQVFPVLPLSGLEEMNDRRAVMLDITCDSDGAVEQYVEGQGIESTLPVPAWTSDKPYLMGFFLVGAYQEILGDMHNLFGDTHSAVVNINDNGESEIAFINEGDTVEDMMRYVHIDVDKIRTNYRQLVSQRVAKEEQETVLAELELGLSGYTYLEDFEGHHHHHH
MEFSIKQSPLSVQSVVKCIKMKQAPEILGSANGKTPSCEVNRECSVFLSKAQLSSSLQEGVMQKFNGHDALPFIPADKLKDLTSRVFNGEPGAHDAKLRFESQEMKGIGTPPNTTPIKNGSPEIKLKITKTYMNGKPLFESSICGDSAADVSQSEENGQKPENKARRNRKRSIKYDSLLEQGLVEAALVSKISSPSDKKIPAKKESCPNTGRDKDHLLKYNVGDLVWSKVSGYPWWPCMVSADPLLHSYTKLKGQKKSARQYHVQFFGDAPERAWIFEKSLVAFEGEGQFEKLCQESAKQAPTKAEKIKLLKPISGKLRAQWEMGIVQAEEAASMSVEERKAKFTFLYVGDQLHLNPQVAKEAGIAAESLGEMAESSGVSEEAAENPKSVREECIPMKRRRRAKLCSSAETLESHPDIGKSTPQKTAEADPRRGVGSPPGRKKTTVSMPRSRKGDAASQFLVFCQKHRDEVVAEHPDASGEEIEELLRSQWSLLSEKQRARYNTKFALVAPVQAEEDSGNVNGKKRNHTKRIQDPTEDAEAEDTPRKRLRTDKHSLRKRDTITDKTARTSSYKAMEAASSLKSQAATKNLSDACKPLKKRNRASTAASSALGFSKSSSPSASLTENELLWEPTPVKLDLNPAALYCT
MSQSKVAMKKDSMRKNKKLVINIALDKEVLASRVEADHDLGSVRDEKERLESSERRREVCSKAEDIVDKAIDNHSRVRGDGIMREADVGTGLSGALNRLREQGTFKEEGKVVGVKDNNHEDDRFKDRFKDIQIQRVNKWGRIMTEKEAYRSLCHGFHGKGPGKKKQEKQRKKHEDKSKQMESSERSVERIREIHAISKTPYIVL
MHEWGLSEELKIQTKQMIEIAEKELSIMRNAIDKEDECILCKMEDIHHMLANVQTLAATYYIQAYLSPYTESSSFITTAIQHLSARKHGALIVVERNETLEALIQTGTTLNAHLTAPLLESIFYPGNPLHDGAVLVKNNHIVSAANILPLTKSTEVDPELGTRHRAAIGLSEKSDALILVVSEETGRTSFALNGILYTISL
MAKFNVENEHVEVEIEKLYKFSPELVYEAWTKKDLLKQWFMTSARTNKEIEADVKEGGKYRIVDQQRNGKVNVIEGIYESLVMDEYVKMTIGMPGLSETQDVIEVEFFERETGGTQMLFYYRSLVEKERRFTNLEYKQKKKEYHDAMVHGFELMFDKMYHVIETSTQQ

Soluble on expression in E. coli, not soluble:
MGSDKIHHHHHHMRKKSLTLLSDGYLFRKENTIYFENARGKKPLAIEGIYDIYIYGKVSISSQALHYLAQKGIALHFFNHYGYYDGSFYPRESLHSGYLVVNQVEHYLDKDKRLELAKLFIIGGIKNMEWNLLKFKNKTKFSSYIEELNNCNKITEVMNVEGRVRTEYYRLWDETLPDDFKIVKRTRRPPKNEMNALISFLNSRLYPAIITELYNTQLTPTVSYLHEPHERRFSLALDLSEIFKPMIADRLANRLVKQGIIQKKHFRDDLNGVLLNKEGMKVVLEHFNKEMDKTVNHKKLKKNVSKRRLIRLEAYKLVKHLVGQKRYEPLVAWF
MSLSHIRPDFPEPYGLPVDGLRGKTSIFSHPVYLFLREFSLQDSRGGSLSKKAESLSSGKITIGTKEKVIIINELRQCHPLSQLLVIADLPRSTFYYHVKRLNAPDPYQLVKQVILRIYHQHKGRYGYRRIRLACRNESILLNGKTIRKLMKELGISSLIRRKKYRTYRGEQGRTCNNLLKRQFYADRPNQKWVTDVTEFKVDGRKLYLSPIMDLYNGEIVSYNLTERPLASMVKSMLLDAVEQLNKDDKPLLHSDQGWQYQMPRWQRWLSDNGITQSMSRRGNCLDNAAMESFFSTLKEGHHHHHH
MGQGANILGFGGDRSFNLAGNRAGFALGSNNGALVGGQRVGVDGGIGGGREGVEMGSQVQFGNEPNPGHPAGQFGSFMDNVKNFFSFLGRGMPMPPQQPPPSPPFSLGVTRPPTLIGTERSESENGGRHRPRPWFPEGEQIPEVTGEMRPKEGEAGISSSSSSSSETEFIGPNNGEIPRKSVEFSIDKEPREEFTEDLFTAQTSRPRELPGLIEFA
MTESFAELFEASQANLAKLKPGSIVTGTVVEVRGDVVVINAGLKSEGIVPIEQFRNDAGEIDVGVGDQVKVALDSIENGFGETVLSREKAKRAMVWDELEEALEKNETITGRISGKVKGGFTVDIKDVRAFLPGSLVDVRPVRDPAYLEGKELEFKLIKLDRKRNNVVVSRRAVVESEHSEEREQLMDKLQEGAILKGVVKNLTDYGAFVDLGGIDGLLHITDMAWKRVRHPSEVVNVGDELDVRVLKFDRERNRVSLGLKQLGEDPWDNIARRYPANSRVFGKVSNVTDYGAFVEIEPGVEGLVHVSEMDWTNKNVNPSKVVQVGDEVEVMVLDVDEERRRISLGMKQVAANPWETFAATHKKNDKVSGQIKSITDFGIFIGLDGGIDGLVHLSDISWNTTGEDVVRNYKKGDTLEAVVLAVDPERERISLGVKQLEQDPFGQYMASNPKGSKVEGVVREVDAKGATIDLADGIEGYVAARDIANERVDDATQHLKVGDKIEAKFVGMDRKGRTLQLSIKAKDDAEMRETLEDYQSASASGGMTQLGALLRAQLNNNKSELEHHHHHH
MGSDKIHHHHHHMTEIYEKYAHAAERMLHFVETRTTDQASSTMRVPVADYLDQGRFDLEIDRIFKRLPLMLALTIELPEVNDYKAMDVMGLPVLITRGRDGKARAFLNVCKHRAMHLAKEGKGNCKAFACQYHGWTYANDGKLMGIAEASTFGDVDRSTLNMTELPCDEAAGLIFVILTPGLPINAVEWMGGMYEDFAALKLETWYYHKSKAMKGANWKVAYDGYLEGYHFQAAHTNTVATRSPSNRASYEGFGPHIRLGFPQNTITRLHELPRDEWGRQENKGYDFIRMLFPNMSFFLAPEMGQLAQLFPGPQANQNTTVMNYIFPVKPETEEGLAALDQMCDFFFDVVEEEDYFLGLKVQNGLESGAMTHQTFGRNEPGNQFFHKWVAYYLDESGQTPMPVMKE
KLKARSIKIQRRMDAILLRMPIFGDIVRKGTIARWGRTTATLIAAGVPLVDVLDSTAGAAGNLIYEEATREIRTRVIQGLSMTSGMRATELFPNMMLQMSSIGEESGSLDDMLNKAAEFYEDEVDNAVGRLSAMMEP
MRIWNRIRCISTIRKNPTCQDVKAPLVSSQVFDPDVWSWNSAPESSLDLPIDSSPNFSMPPATSSETEFAENEESTSSSDDKKKRSEVIEENRSDGHAPIKSALSILMRSLQKSSSMTTSLSDIDVTLFNFHSTKFAERLLNRNVSSVVIVESSHVFSKNAKKFASEFSNVSAYRADIYTLMGVGRKKTAQFPRKMMFADFGKNETPEQYENIHPLTLTSAESSSNSEHLHAKFRRPHLLGVLPTPTIQRTILDSMIQHVLLHHSGNDEDTIFRYGDTNLLTFLGSGILAQYTCSTDNRLNFLSHQHRRHSALFNKLFEVKMLQTRQSEDPETAEIPIGHPPTSFHPLLPTAKKITHEKKLSDVNLTNGLQYPVQILPQKHLKIGGNEVTTENGMGRMLVDYACFMTQIGRQPNAKAVDQVVRLLWPESALSIPADILGDHKIGQLPNDHLDVIFQHVHEELHNTSIAKTYCNELKIKRAI
QSRTPTIFFHGYGSSANAETHMTNAAKKAGVTKTVILAYVDQNGHVTLVGKIPKNAINPIVKVNFADNRNADYDTDAKYAKAVVSKLQKTYHFKKMNMVGHSMGNMAINFYMLANAEDKTLPQLQKQVDIAGHFDGIKNYDLPQNLTINAKTGQPNAMTAAYKRLLKLQERYPKDQVDVLNLYGDKGDGSDGIVTNDSSRTLKYLIGERAKSYQEHRFTGKLAGHSKLHENPQVDKFLINFLWGK
MAEVLKKVDVVTVGAGWTGGIVAAELTKAGLNVLSLERGHMQSTENFNYIHDEWRYGINYGLMQDCSKDTVTFRHDPSGLALPYRKMGSFLLGNNVGGAGVHWNGWTFRFMPYDFEIQTLSKQRYGNKLGNDYTLQDWGVTYKDMEPYYDRFEKTCGVSGEPNPLAEKMGAFRSSPYPQEPLENTKMLKRFESAAKSSNLHTYRLPASNSKGGYTNPDGQDLAPCQYCAYCERFGCEYGAKASPLNTVIPKAMSTGKYTIRTYSNVTQILKKDGKVTGVKFVDTRTMKEYIQPADIVVLTSYMFNNAKLLMVSNIGEQYDPKTGKGTLGRNYCYQMNMGTTAFFDEQFNTFMGSGALGTTSDDFNGDNFDHSKEKFLHGAMIYSVQLGTRPIQSAPLPAGAPTWGAEFKKALNYNFTRAITVGGQGASLPHKNNYLSLDPTYKDAFGMPLLRLTYNFTDQDRALHKFITDKTAEVAKRMQGVKSIKKGAYLKDYSVVPYQSTHNTGGTTMGADRETSVVNTYLQHWDADNLFVVGAGNFQHNSGYNPTDTVGALAYRCAEGILKYHKSGKSLALEHHHHHH
MTLSTINPMKKSRIDNIHHTQILFFSDENQIDQEAPYYDALLDLEKDYPEQIDKMKVYDKKEGWEDEIETVPTLMVVDQRHVVVKIEGCVKKKEDIIKPLQHVLSKLEHHHHHH
MFNGEKVTLLEMLDAREQRAATQKELLETAPEASLLSATMNIPGEVKNSPTLTAVFLEVIDEVEQQLLDQVPIVNFYRNEKTGPEYYLAVSLAPQELKQRMVKIEETHPYGRLVDLDVLWGNEELKSLHRGDLGLPPRRCFICQEVAKVCGRNRRHSLEAMQEKITEIILTRKEQPSE
